What was measured:
acetylcholine receptor [1] = experiment: SPR, peptide at 10 uM on immobilized AchR
acetylcholine receptor [2] = experiment: SPR, AchR immobilized on chip, peptide 10 uM

| Binding affinity (RU) (acetylcholine receptor [1]) | Binding affinity (RU) (acetylcholine receptor [2]) | Binder |
| --- | --- | --- |
| – | 80 RU | KQFLR [5mer-149] |
| 33 RU | – | RPMGRK [6mer-2-1074] |
| 29 RU | – | RDEIRK [6mer-2-1067] |
| 24 RU | – | RFNVRK [6mer-2-1063] |
| – | 68 RU | KGVCR [5mer-453] |
| 28 RU | – | KHPKRR [6mer-2-1098] |
| 30 RU | – | KPDFKR [6mer-2-1055] |
| 32 RU | – | KYKMRR [6mer-2-1081] |
| 31 RU | – | RHMERK [6mer-2-1075] |
| 39 RU | – | KYSMRR [6mer-2-1095] |
| 35 RU | – | RFADRR [6mer-2-1059] |
| 39 RU | – | RCMKRR [6mer-2-1064] |
| 38 RU | – | KPPIKK [6mer-2-1061] |
| 39 RU | – | RANVKR [6mer-2-1096] |
| 21 RU | – | KNDWRK [6mer-2-1086] |
| – | 65 RU | KGLYR [5mer-449] |
| 24 RU | – | RMPWKK [6mer-2-1058] |
| 34 RU | – | KMTIKK [6mer-2-1077] |
| 35 RU | – | KYNIRK [6mer-2-1062] |

Continued, binder first:

| Binder | Binding affinity (RU) (acetylcholine receptor [1]) | Binding affinity (RU) (acetylcholine receptor [2]) |
| --- | --- | --- |
| RPHVRR [6mer-2-1070] | 31 RU | – |
| KHDMKK [6mer-2-1069] | 36 RU | – |
| RIANRK [6mer-2-1065] | 27 RU | – |
| RKHKKK [6mer-2-1080] | 23 RU | – |
| KEMHKK [6mer-2-1090] | 33 RU | – |
| KTTDKK [6mer-2-1093] | 43 RU | – |
| RIHVKK [6mer-2-1068] | 26 RU | – |
| KDTFRR [6mer-2-1078] | 40 RU | – |
| RRRRR [5mer-152] | – | 56 RU |
| KEEMRR [6mer-2-1087] | 21 RU | – |
| RFDNKR [6mer-2-1091] | 31 RU | – |
| RYCIRR [6mer-2-1076] | 34 RU | – |
| KYSWRK [6mer-2-1073] | 24 RU | – |
| KKNKKR [6mer-2-1054] | 43 RU | – |
| RPCEKK [6mer-2-1088] | 39 RU | – |
| KYTERR [6mer-2-1082] | 31 RU | – |
| RNDERK [6mer-2-1056] | 22 RU | – |
| RQVLK [5mer-451] | – | 53 RU |
| RSITR [5mer-154] | – | 54 RU |

| Binder | Binding affinity (RU) (acetylcholine receptor [1]) | Binding affinity (RU) (acetylcholine receptor [2]) |
| --- | --- | --- |
| KTKGKR [6mer-2-1083] | 39 RU | – |
| RVIQK [5mer-450] | – | 78 RU |
| KPHWKR [6mer-2-1072] | 29 RU | – |
| RSIQK [5mer-153] | – | 72 RU |
| RTTWRK [6mer-2-1071] | 25 RU | – |
| KTNERK [6mer-2-1060] | 35 RU | – |
| RKKKKK [6mer-2-1057] | 25 RU | – |
| RFWEKK [6mer-2-1097] | 23 RU | – |
| KCNEKK [6mer-2-1079] | 40 RU | – |
| KPEHKR [6mer-2-1066] | 29 RU | – |
| RAKFRR [6mer-2-1092] | 21 RU | – |
| RGVSK [5mer-452] | – | 82 RU |
| KAWERK [6mer-2-1094] | 43 RU | – |
| RKTDRR [6mer-2-1089] | 43 RU | – |
| REKPRK [6mer-2-1084] | 29 RU | – |
| RVFTK [5mer-151] | – | 66 RU |
| RVRTR [5mer-150] | – | 64 RU |
| RPEIRK [6mer-2-1085] | 42 RU | – |

From US20250011363A1, “OPTIMIZED SHORTENED PEPTIDE THAT BINDS TO ACETYLCHOLINE RECEPTOR, AND USE THEREOF” (SKINMED CO., LTD., priority 2021, published 2025)
